The source of these data is US20110282033A1 (Ablynx, published 2011).

Assay [1] addresses T1, Recombinant human FGFR4/Fc chimera (R&D Systems Cat #685 FR) (human, UniProt P22455 22-369).
T1 construct: extracellular domain; Bought reagent; also called Fc-FGFR4; not shown: Fc part of the bought chimera (detected with anti-human IgG)
T1 sequence (looked up): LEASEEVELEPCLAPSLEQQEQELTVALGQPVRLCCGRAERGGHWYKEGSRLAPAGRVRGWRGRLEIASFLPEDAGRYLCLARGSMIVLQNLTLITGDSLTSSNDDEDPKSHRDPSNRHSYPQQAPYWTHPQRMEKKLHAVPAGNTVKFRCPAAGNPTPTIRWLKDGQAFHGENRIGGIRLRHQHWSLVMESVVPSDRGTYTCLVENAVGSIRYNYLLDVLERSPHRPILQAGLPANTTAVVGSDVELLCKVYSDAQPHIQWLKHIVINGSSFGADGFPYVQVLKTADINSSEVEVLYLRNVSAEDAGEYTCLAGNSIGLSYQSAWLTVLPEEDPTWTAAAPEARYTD
Briefly: competition ELISA: FGFR4-Fc with heparin and MgCl2 pre-mixed with Nanobody, binding to coated acidic FGF (129 nM), detection with HRP anti-human IgG. The protocol: Clones tested in the FGFR4 binding assay were also screened for their ability to block acidic FGF binding to FGFR4-Fc. For this, purified Nanobodies, were used in an ELISA-based ligand competition setup. In short, 2.0 ug/ml (129 nM) human FGF (R&D Systems Cat #232-FA/CF) was coated in 96 well Maxisorp microtiter plates (Nunc) and blocked with 4% Marvel skimmed milk in PBS. In parallel, 0.25 ug/ml (1.9 nM) FGFR4-Fc chimera plus 2.5 μg/ml heparin and 10 mM MgCl₂ were incubated with periplasmic extracts or purified Nanobody. After 1 hour, the receptor-Nanobody pre-mixes were incubated 1 hour with the coated ligand. Bound FGFR4-Fc was detected using HRP-conjugated goat anti-human IgG (Jackson Immunoresearch, Cat #109-035-098). Blocking activity was determined as loss of OD signal, as compared to wells where irrelevant Nanobody had been added. […] Ligand is coated at 129 nM and receptor is added at […].
Background: ELISA stands for enzyme-linked immunosorbent assay.

In assay [2] the target is T2, Recombinant human PDGFRβ/Fc chimera (R&D Systems Cat #385 PR) (human, UniProt P09619 33-532).
T2 construct: extracellular domain; Bought reagent; also called PDGFRP-Fc; not shown: Fc part of the bought chimera (captured and detected with anti-human IgG)
Briefly: ELISA ligand competition with PDGFRβ-Fc and coated PDGF-BB (FIG. 5). The protocol: Clones tested in the PDGFRβ binding assay were also screened for their ability to block PDGF-BB binding to PDGFRβ-Fc. For this, Nanobody containing periplasmic extracts, or selected purified Nanobodies, were used in an ELISA-based ligand competition setup. In short, 1.0 ug/ml (80 nM) recombinant human PDGF-BB (R&D Systems #220-BB) was coated in 96 well Maxisorp microtiter plates (Nunc) and blocked with 4% Marvel skimmed milk in PBS. In parallel, 1 ug/ml (12 nM) PDGFRβ-Fc chimera was incubated with periplasmic extracts or purified Nanobody. After 1 hour, the receptor-Nanobody pre-mixes were incubated 1 hour with the coated ligand. Bound PDGFRβ-Fc was detected using HRP-conjugated goat anti-human IgG (Jackson Immunoresearch, Cat #109-035-098). Blocking activity was determined as loss of OD signal, as compared to wells where no Nanobodies, or irrelevant Nb, had been added.

Assay [3] has as its target T1, Recombinant human FGFR4/Fc chimera (R&D …). Briefly: ELISA: periplasmic extract on coated FGFR4-Fc (500 ng/ml). The protocol: In order to determine binding specificity to FGFR4, the clones were tested in an ELISA binding assay setup, using the monoclonal […]. Shortly, 500 ng/ml of Fc-FGFR4 (R&D Systems Cat #685 FR) was coated on Maxisorp ELISA plates (Nunc) and free binding sites were blocked using 4% Marvel skimmed milk in PBS. After a wash step with PBS, 10 ul of periplasmic extract from the monoclonal inductions of the different clones in 100 ul 2% Marvel PBS were allowed to bind to the FGFR4-Fc. […] 53-G3 was used as a reference since it was selected against PDGFRβ-Fc.

Assay [4] has as its target T2, Recombinant human PDGFRβ/Fc chimera …. Briefly: phage ELISA on PDGFRβ-Fc (0.1 ug/ml) captured by coated anti-human IgG, detection with HRP anti-M13. The procedure: In order to determine binding specificity to PDGFRβ-Fc, the clones were tested in an ELISA binding assay setup, using the monoclonal phage pools. Shortly, 1 ug/ml of Fc-capturing Ab (Rabbit anti-human IgG, DAKO # A423) was coated on Maxisorp ELISA plates (Nunc) and free binding sites were blocked using 4% Marvel skimmed milk in PBS. Next, 0.1 ug/ml receptor in 2% Marvel/PBS was captured. After a wash step with PBS, 10 ul of supernatant from the monoclonal phage inductions of the different clones in 100 ul 2% Marvel PBS were allowed to bind to the captured PDGFRP-Fc. […] Binding specificity was determined based on OD values compared to controls having received no phage.

Another assay has as its target T3, PDGFRb on HeLa cells (human, UniProt P09619 33-1106).
T3 construct: whole, on cells; HeLa cells were not transfected
Briefly: immunofluorescence on HeLa cells, 40 nM Nanobody, detection with mouse anti-myc and goat anti-mouse Alexa 488; PDGFR co-stained with a commercial antibody. The protocol:
40 nM of nanobody was added in medium and incubated 30 minutes at room temperature. Cells were put on ice to stop internalization and washed 3 times with ice-cold PBS. Cells were fixed by incubation for 30 minutes with 4% PFA at room temperature. After washing with PBS amine groups were blocked by incubation for 10 min. with 100 mM glycin in PBS at room temperature. After washing cells were permeabilized by incubation for 5 min. with 0.2% TritonX-100 in PBS at room temperature.
Cells were blocked by incubation in 2% Marvell/PBS for 15 minutes. Subsequently nanobodies were detected by incubation for 1 hour with mouse anti-myc (9E10) antibody in 2% Marvell/PBS and after washing 1 hour with goat-anti-mouse-alexa-488 in 2% Marvell/PBS in the dark. After washing coverslips were mounted with 4 ul mowiol and let to dry for at least 30 minutes. Dry slides were stored at −20 C.

Assay [5] deals with dimeric VEGFR1/Fc chimera (R&D Systems Cat #321-FL) (UniProt P17948). Briefly: competition ELISA: VEGFR1-Fc (0.1 ug/ml) pre-mixed with Nanobody, binding to coated VEGF165 (0.2 ug/ml), detection with HRP anti-human IgG.
dimeric VEGFR1/Fc chimera (R&D Systems Cat #321-FL), sequence (P17948 27-758 limits assumed, change not shown): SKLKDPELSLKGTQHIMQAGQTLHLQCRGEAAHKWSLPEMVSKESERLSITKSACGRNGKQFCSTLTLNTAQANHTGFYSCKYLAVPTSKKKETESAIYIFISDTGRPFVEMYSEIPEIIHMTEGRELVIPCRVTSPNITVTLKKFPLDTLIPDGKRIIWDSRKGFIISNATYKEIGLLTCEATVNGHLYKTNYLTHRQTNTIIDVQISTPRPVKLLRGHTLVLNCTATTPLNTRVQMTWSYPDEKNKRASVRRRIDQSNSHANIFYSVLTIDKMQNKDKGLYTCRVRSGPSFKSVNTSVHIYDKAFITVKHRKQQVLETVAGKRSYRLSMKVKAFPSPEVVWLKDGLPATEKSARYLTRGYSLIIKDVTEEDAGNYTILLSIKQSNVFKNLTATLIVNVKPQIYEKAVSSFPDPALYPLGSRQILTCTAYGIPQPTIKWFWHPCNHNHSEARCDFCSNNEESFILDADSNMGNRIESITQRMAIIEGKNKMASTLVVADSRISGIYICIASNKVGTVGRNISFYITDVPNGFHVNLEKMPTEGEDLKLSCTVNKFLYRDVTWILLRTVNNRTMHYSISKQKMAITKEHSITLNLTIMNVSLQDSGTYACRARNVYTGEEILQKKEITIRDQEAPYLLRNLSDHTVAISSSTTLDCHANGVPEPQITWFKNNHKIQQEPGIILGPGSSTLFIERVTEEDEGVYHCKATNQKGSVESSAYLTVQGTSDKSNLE

T2 sequence (P09619 33-532, change not shown): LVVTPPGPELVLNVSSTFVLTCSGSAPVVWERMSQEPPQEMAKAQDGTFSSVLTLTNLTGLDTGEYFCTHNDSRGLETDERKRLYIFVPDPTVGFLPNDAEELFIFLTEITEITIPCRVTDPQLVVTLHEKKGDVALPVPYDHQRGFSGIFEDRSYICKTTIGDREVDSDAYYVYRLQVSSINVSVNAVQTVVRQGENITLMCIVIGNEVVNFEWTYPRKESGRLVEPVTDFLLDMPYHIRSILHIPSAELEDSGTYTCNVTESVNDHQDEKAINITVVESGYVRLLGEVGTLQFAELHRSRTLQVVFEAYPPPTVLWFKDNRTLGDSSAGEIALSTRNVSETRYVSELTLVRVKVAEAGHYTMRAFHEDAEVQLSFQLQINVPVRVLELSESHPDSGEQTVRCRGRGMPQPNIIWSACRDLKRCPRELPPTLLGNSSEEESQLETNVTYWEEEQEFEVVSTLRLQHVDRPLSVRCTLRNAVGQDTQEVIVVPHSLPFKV
T3 sequence (P09619 33-1106): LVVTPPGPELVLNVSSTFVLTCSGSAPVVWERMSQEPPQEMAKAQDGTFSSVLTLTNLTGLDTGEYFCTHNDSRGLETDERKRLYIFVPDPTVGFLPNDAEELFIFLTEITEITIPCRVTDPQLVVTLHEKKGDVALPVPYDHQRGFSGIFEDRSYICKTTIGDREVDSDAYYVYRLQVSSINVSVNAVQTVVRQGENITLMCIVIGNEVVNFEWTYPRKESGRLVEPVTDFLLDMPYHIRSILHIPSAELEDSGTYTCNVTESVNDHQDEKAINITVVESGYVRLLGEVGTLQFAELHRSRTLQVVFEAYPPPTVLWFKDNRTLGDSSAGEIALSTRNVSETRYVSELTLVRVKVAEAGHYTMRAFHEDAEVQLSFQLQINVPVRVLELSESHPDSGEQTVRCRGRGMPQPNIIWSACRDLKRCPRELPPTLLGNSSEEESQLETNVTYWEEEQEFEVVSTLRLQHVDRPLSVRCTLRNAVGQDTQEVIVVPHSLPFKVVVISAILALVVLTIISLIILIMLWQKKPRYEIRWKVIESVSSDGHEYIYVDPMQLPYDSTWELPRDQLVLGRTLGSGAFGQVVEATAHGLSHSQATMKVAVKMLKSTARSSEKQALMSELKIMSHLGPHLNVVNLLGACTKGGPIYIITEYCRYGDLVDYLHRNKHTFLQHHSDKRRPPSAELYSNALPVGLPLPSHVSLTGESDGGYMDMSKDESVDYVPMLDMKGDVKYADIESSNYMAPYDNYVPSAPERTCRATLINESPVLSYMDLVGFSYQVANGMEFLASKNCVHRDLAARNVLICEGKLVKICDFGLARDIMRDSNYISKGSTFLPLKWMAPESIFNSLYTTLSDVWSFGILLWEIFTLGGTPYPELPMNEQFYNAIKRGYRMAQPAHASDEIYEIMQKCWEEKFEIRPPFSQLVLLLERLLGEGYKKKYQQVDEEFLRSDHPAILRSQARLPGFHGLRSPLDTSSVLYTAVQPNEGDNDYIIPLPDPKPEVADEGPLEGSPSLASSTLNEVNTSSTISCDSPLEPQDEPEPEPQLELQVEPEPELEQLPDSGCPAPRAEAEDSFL

B1: 55-D5 (VHH)
VHH: EVQLVESGGALVQPGGSLRLSCAASGFTFRNYDMSWVRQAPGKGPEWVSSINSGGGSTYYADSVKGRFTISRDNAKNTLYLQMNSLKPEDTAVYYCATGLITTAQAMLEEYDYWGQGTQVTVSS
notes: Purified Nanobody
With B1, in assay [1], the “IC50 (read off the curve)” value was approximately 8 nM.

B2: 42-H5 (VHH)
VHH: EVQLVESGGGLVQPGGSLTLSCAASGFTFSSYAMSWVRQAPGKGLELVSDINSGGISTYYADSVKGRFTISRDNAKNTLYLQMNSLKPEDTAVYYCKTDTLVAGTDDYWGQGTRVTVSS
notes: Purified Nanobody; Also used as negative control in the PDGFRβ assays
As to B2, in assay [2], the binding result is given as “no binding (tested: 50 nM)”.

B3: 53-G3 (VHH)
VHH: EVQLVESGGGLVQAGGSLRLSCAASRRTFSSYAMGWFRQAPGKEREIVADISWNGSRTYYADSAKGRFTISRDNAKNTVYLQMNSLKPEDTAVYYCAAALFGGLGRAPSTHEYAYWGQGTQVTVSS
notes: Purified Nanobody; Also used as negative control in the FGFR4 assays
With B3, the binding result is “no binding” in assay [3], “binds” in assay [4] and “binds” with PDGFRb on HeLa cells.

B4: 53-B5 (VHH)
VHH: EVQLVESGGGLVQAGGSLRLSCAASRRTFSSYAMGWFRQAPGKEREVVADISWNGSRTYYADSAKGRFTISRDNAKNTVYLQMNSLKPEDTAVYYCAAALFGGLGRAPSTHEYAYWGQGTQVTVSS
notes: Purified Nanobody
Regarding B4, the binding result (in assay [4]; with PDGFRb on HeLa cells) was “binds” in each case.

B5: 46-F11 (VHH)
VHH: EVQLVESGGGLVQPGGSLRLSCAASGFTFSSYAMSWVRQAPGKELEWVSGINSGGDRTVNADSVKGRFTVSRDNAKNTLYLQMNSLKPEDTALYYCAKSIPPTDDRNYWGQGTQVTVSS
For B5, the IC50 (read off the curve) in assay [5] stood at 1 nM.

B6: 73-G9 (VHH)
VHH: EVQLVESGGGLVQPGGSLKLSCAAAGFTFRPYAMGWFRQAPGKEREFVAAVATNVGTTFYQDSVKGRFTISRDNAKNTVYLQMNSLRPEDTAVYYCNTKLYSGIFREYWGQGTQVTVSS
notes: Purified Nanobody
Consider B6, for which, in assay [1], the “IC50 (read off the curve)” value was approximately 10 nM.
